Test results as given in article PMC4278905, “Differential Binding of Lef1 and Msx1/2 Transcription Factors to Dkk1 CNEs Correlates with Reporter Gene Expression In Vivo”.

Biological target: Lef1 (UniProt P27782 1-397)
Test: EMSA; 100 ng Lef1, 5 mM Mg2+, 1 ug poly(dI-dC); 20 mM Hepes pH 7.9, 60 mM KCl, 1 mM EDTA, 1 mM DTT, 5 mM MgCl2, 10% glycerol, 1 ug poly(dI-dC), 30 min on ice; 5% native PAGE, 0.5x TBE, 4 C
Conditions: protein: recombinant; tags: GST removed by thrombin (pGEX4T-1); label: 32P (T4 PNK, 5' end); blunt

Sequence of Lef1 (P27782 whole entry): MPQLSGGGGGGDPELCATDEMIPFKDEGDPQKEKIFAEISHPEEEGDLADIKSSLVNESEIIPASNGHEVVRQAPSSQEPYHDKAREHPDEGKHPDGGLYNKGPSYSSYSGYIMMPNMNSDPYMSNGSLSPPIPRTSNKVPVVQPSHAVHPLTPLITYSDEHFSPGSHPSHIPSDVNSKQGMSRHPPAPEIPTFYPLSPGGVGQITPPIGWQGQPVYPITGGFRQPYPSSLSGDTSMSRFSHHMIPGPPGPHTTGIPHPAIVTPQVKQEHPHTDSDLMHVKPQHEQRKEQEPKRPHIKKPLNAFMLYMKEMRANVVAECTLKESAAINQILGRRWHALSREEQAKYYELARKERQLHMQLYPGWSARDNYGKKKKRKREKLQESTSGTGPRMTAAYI

Binder	binding result
CNE195 Tcf/Lef (dsDNA) DNA 1: ATGAATGAAACTTCAAAGGGCAAGGGTCA DNA 2: TGACCCTTGCCCTTTGAAGTTTCATTCAT	binds
CNE195Mut(TCF/Lef) (dsDNA) DNA 1: ATGAATGAAACTTGAATTCGCAAGGGTCA DNA 2: TGACCCTTGCGAATTCAAGTTTCATTCAT	no binding
